Measured values published in the supplement of paper PMC9112550, “Optimization of the antimicrobial peptide Bac7 by deep mutational scanning” (BMC Biology, 2022).

System: Escherichia coli TOP10
Experiment: shrunken log2 fold change of peptide-encoding DNA abundance (4.5 h post-induction vs induction); higher = less antimicrobial activity (less host growth inhibition)
Details: time post-induction: 4.5 h; library: site-saturation at positions 5, 18, 19, 20
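Further: peptides expressed intracellularly from a pBAD plasmid library in pooled LB shake-flask culture, induced with 0.3% L-arabinose, DNA abundance read by NGS, three biological replicates, DESeq2 with apeglm shrinkage.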

Sequence | shrunken log2 fold change
RRIRGRPPRLPRPRPRPKETPRP | -0.0578
RRIRSRPPRLPRPRPRPMGCPRP | -0.112
RRIRQRPPRLPRPRPRPQPQPRP | 0.0436
RRIRTRPPRLPRPRPRPNTMPRP | -0.675
RRIRQRPPRLPRPRPRPWENPRP | 0.0728
RRIRDRPPRLPRPRPRPAIAPRP | 0.878
RRIRARPPRLPRPRPRPFELPRP | -0.146
RRIRKRPPRLPRPRPRPCMEPRP | 0.0223
RRIRWRPPRLPRPRPRPTFMPRP | -0.172
RRIRLRPPRLPRPRPRPHIKPRP | -0.528
RRIRMRPPRLPRPRPRPNIQPRP | -0.112
RRIRSRPPRLPRPRPRPQGSPRP | -0.00511
RRIRQRPPRLPRPRPRPSANPRP | 0.0611
RRIRWRPPRLPRPRPRPSLRPRP | 0.0372
RRIRTRPPRLPRPRPRPSYAPRP | -0.274
RRIRQRPPRLPRPRPRPNQKPRP | -0.0966
RRIRQRPPRLPRPRPRPDKAPRP | 0.517
RRIRLRPPRLPRPRPRPAESPRP | 0.197
RRIRHRPPRLPRPRPRPTQTPRP | -0.0128
RRIRLRPPRLPRPRPRPGLNPRP | 0.15
RRIRERPPRLPRPRPRPWCLPRP | -0.746
RRIRLRPPRLPRPRPRPFLQPRP | -0.102
RRIRPRPPRLPRPRPRPPCWPRP | 0.468
RRIRGRPPRLPRPRPRPDRDPRP | 0.326
RRIRMRPPRLPRPRPRPTCMPRP | 0.262

Sequence | shrunken log2 fold change
RRIRDRPPRLPRPRPRPCDIPRP | -0.11
RRIRPRPPRLPRPRPRPMTDPRP | 0.0653
RRIRARPPRLPRPRPRPWPFPRP | -0.0236
RRIRTRPPRLPRPRPRPIFTPRP | -0.0602
RRIRKRPPRLPRPRPRPARNPRP | 0.00491
RRIRMRPPRLPRPRPRPATCPRP | 0.398
RRIRVRPPRLPRPRPRPRWVPRP | 0.309
RRIRHRPPRLPRPRPRPEYFPRP | -0.0339
RRIRCRPPRLPRPRPRPPLNPRP | 0.212
RRIRMRPPRLPRPRPRPNELPRP | 0.0804
RRIRFRPPRLPRPRPRPVVMPRP | 0.297
RRIRFRPPRLPRPRPRPKVQPRP | 0.199
RRIRLRPPRLPRPRPRPNCPPRP | -0.213
RRIRYRPPRLPRPRPRPPQNPRP | 0.191
RRIRIRPPRLPRPRPRPYKRPRP | -0.0487
RRIRYRPPRLPRPRPRPLKLPRP | -0.772
RRIRNRPPRLPRPRPRPAMCPRP | -0.199
RRIRRRPPRLPRPRPRPERWPRP | 0.613
RRIRDRPPRLPRPRPRPIVMPRP | -0.0257
RRIRIRPPRLPRPRPRPEREPRP | 0.0556
RRIRDRPPRLPRPRPRPFPQPRP | 0.0191
RRIRHRPPRLPRPRPRPYGSPRP | -0.0135
RRIRVRPPRLPRPRPRPYFPPRP | 0.109
RRIRVRPPRLPRPRPRPQIKPRP | -0.455
RRIRDRPPRLPRPRPRPQSVPRP | -0.0496

Sequence | shrunken log2 fold change
RRIRGRPPRLPRPRPRPARAPRP | 1.03
RRIRERPPRLPRPRPRPYWKPRP | -0.0866
RRIRKRPPRLPRPRPRPTIFPRP | 0.2
RRIRKRPPRLPRPRPRPGFRPRP | 0.942
RRIRARPPRLPRPRPRPRWAPRP | 1.05
RRIRNRPPRLPRPRPRPHTYPRP | -0.501
RRIRWRPPRLPRPRPRPCWRPRP | 0.0637
RRIRFRPPRLPRPRPRPSEHPRP | -0.323
RRIRCRPPRLPRPRPRPFQEPRP | -0.101
RRIRTRPPRLPRPRPRPSFIPRP | -0.761
RRIRNRPPRLPRPRPRPRRAPRP | 0.604
RRIRLRPPRLPRPRPRPMADPRP | 0.0237
RRIRLRPPRLPRPRPRPAQTPRP | -0.00496
RRIRWRPPRLPRPRPRPYIWPRP | -0.477
RRIRWRPPRLPRPRPRPVSQPRP | 0.139
RRIRLRPPRLPRPRPRPLIHPRP | -0.542
RRIRMRPPRLPRPRPRPSEAPRP | 1.95
RRIRMRPPRLPRPRPRPLQKPRP | 1.02
RRIRCRPPRLPRPRPRPMHIPRP | -0.241
RRIRSRPPRLPRPRPRPYCDPRP | -0.225
RRIRNRPPRLPRPRPRPLLTPRP | -0.046
RRIRMRPPRLPRPRPRPHGLPRP | 0.0212
RRIRGRPPRLPRPRPRPTWMPRP | 0.599
RRIRRRPPRLPRPRPRPRSWPRP | 0.648
RRIRARPPRLPRPRPRPSFMPRP | 0.0496

Sequence | shrunken log2 fold change
RRIRLRPPRLPRPRPRPPHHPRP | 0.253
RRIRNRPPRLPRPRPRPNHTPRP | -0.773
RRIRHRPPRLPRPRPRPHDHPRP | -1.24
RRIRRRPPRLPRPRPRPQMSPRP | 0.0441
RRIRARPPRLPRPRPRPEIDPRP | 1.36
RRIRFRPPRLPRPRPRPELHPRP | -0.235
RRIRYRPPRLPRPRPRPHVWPRP | 0.0773
RRIRGRPPRLPRPRPRPCPNPRP | 0.0353
RRIRCRPPRLPRPRPRPMRFPRP | 0.249
RRIRDRPPRLPRPRPRPGQFPRP | -0.166
RRIRMRPPRLPRPRPRPIANPRP | 0.333
RRIRMRPPRLPRPRPRPVSIPRP | 0.0541
RRIRMRPPRLPRPRPRPQSGPRP | -0.0103
RRIRARPPRLPRPRPRPYHPPRP | -0.482
RRIRARPPRLPRPRPRPDKKPRP | 0.0318
RRIRTRPPRLPRPRPRPHFFPRP | -0.161
RRIRIRPPRLPRPRPRPKPWPRP | 0.192
RRIRMRPPRLPRPRPRPVKAPRP | -0.0481
RRIRYRPPRLPRPRPRPNHSPRP | -0.498
RRIRYRPPRLPRPRPRPTVVPRP | -0.477
RRIRFRPPRLPRPRPRPEHPPRP | -0.0569
RRIRWRPPRLPRPRPRPISKPRP | -0.215
RRIRTRPPRLPRPRPRPVFRPRP | -0.516
RRIRPRPPRLPRPRPRPSSPPRP | -0.406
RRIRFRPPRLPRPRPRPWTEPRP | -0.119

Sequence | shrunken log2 fold change
RRIRSRPPRLPRPRPRPVDTPRP | -0.103
RRIRVRPPRLPRPRPRPEQNPRP | 0.316
RRIRSRPPRLPRPRPRPSAPPRP | 0.287
RRIRMRPPRLPRPRPRPHFPPRP | -0.106
RRIRERPPRLPRPRPRPFHCPRP | -0.175
RRIRKRPPRLPRPRPRPEYPPRP | 0.0134
RRIRYRPPRLPRPRPRPIVYPRP | -1.23
RRIRNRPPRLPRPRPRPFVHPRP | -0.568
RRIRPRPPRLPRPRPRPFYFPRP | -0.387
RRIRYRPPRLPRPRPRPCNFPRP | -0.303
RRIRDRPPRLPRPRPRPTSDPRP | 0.347
RRIRVRPPRLPRPRPRPTVNPRP | -0.171
RRIRDRPPRLPRPRPRPDFCPRP | -0.0409
RRIRYRPPRLPRPRPRPPGWPRP | 0.167
RRIRGRPPRLPRPRPRPWDNPRP | -0.0364
RRIRKRPPRLPRPRPRPMNYPRP | 0.474
RRIRWRPPRLPRPRPRPIQRPRP | 0.0678
RRIRLRPPRLPRPRPRPEDYPRP | -0.0202
RRIRNRPPRLPRPRPRPLARPRP | 0.107
RRIRWRPPRLPRPRPRPYIKPRP | -0.736
RRIRDRPPRLPRPRPRPGPAPRP | 0.608
RRIRFRPPRLPRPRPRPIHQPRP | -0.237
RRIRNRPPRLPRPRPRPGGRPRP | 0.0809
RRIRERPPRLPRPRPRPRSIPRP | 0.0163
RRIRRRPPRLPRPRPRPFWCPRP | -0.18

Sequence | shrunken log2 fold change
RRIRYRPPRLPRPRPRPHSCPRP | -0.00211
RRIRRRPPRLPRPRPRPDCHPRP | 0.619
RRIRHRPPRLPRPRPRPEAIPRP | -0.0296
RRIRVRPPRLPRPRPRPMKIPRP | -0.232
RRIRNRPPRLPRPRPRPRVAPRP | 0.111
RRIRVRPPRLPRPRPRPEPIPRP | 0.0124
RRIRKRPPRLPRPRPRPPFLPRP | -0.0158
RRIRQRPPRLPRPRPRPECSPRP | -0.0561
RRIRGRPPRLPRPRPRPMTMPRP | 0.146
RRIRDRPPRLPRPRPRPRAYPRP | -0.212
RRIRARPPRLPRPRPRPHHWPRP | 0.145
RRIRRRPPRLPRPRPRPAANPRP | 3
RRIRERPPRLPRPRPRPCQDPRP | -0.534
RRIRWRPPRLPRPRPRPFAMPRP | -0.148
RRIRMRPPRLPRPRPRPRQWPRP | 0.0789
RRIRMRPPRLPRPRPRPTCGPRP | 0.942
RRIRPRPPRLPRPRPRPMEIPRP | -0.00192
RRIRVRPPRLPRPRPRPKMIPRP | -0.162
RRIRWRPPRLPRPRPRPHMVPRP | -0.069
RRIRHRPPRLPRPRPRPGSYPRP | -0.287
RRIRRRPPRLPRPRPRPNKQPRP | -0.00565
RRIRARPPRLPRPRPRPVEPPRP | 0.297
RRIRQRPPRLPRPRPRPSVSPRP | -0.000735
RRIRIRPPRLPRPRPRPAQTPRP | -0.0145
RRIRMRPPRLPRPRPRPFHWPRP | -0.184
